In publication PMC5461540, “MOB1 Mediated Phospho-recognition in the Core Mammalian Hippo Pathway” (Molecular & Cellular Proteomics : MCP, 2017):
One block for each binder: values may come before it.

Legend:
[1] = molecular target: FITC labeled phosphorylated MST1 T367 peptide (human); test: fluorescence polarisation; 20 nM FITC-labelled peptide, MOB protein titrated (12 points, triplicate); 25 mM HEPES pH 7.5, 150 mM NaCl, 2 mM DTT, 1 mg/ml BSA; one site-specific binding fit
[2] = molecular target: FITC labeled phosphorylated MST1 T353 peptide (human); test: as above

Kd [1]: 12.2 µM
B1: MOB4 (tags cleaved) (natural protein)
chain: VMAEGTAVLRRNRPGTKAQDFYNWPDESFDEMDSTLAVQQYIQQNIRADCSNIDKILEPPEGQDEGVWKYEHLRQFCLELNGLAVKLQSECHPDTCTQMTATEQWIFLCAAHKTPKECPAIDYTRHTLDGAACLLNSNKYFPSRVSIKESSVAKLGSVCRRIYRIFSHAYFHHRQIFDEYENETFLCHRFTKFVMKYNLMSKDNLIVPILEEEVQNSVSGESEA

Kd [1]: 0.68 µM
Kd [2]: 280 nM
B2: MOB1A wild-type (natural protein)
chain: SFLFSSRSSKTFKPKKNIPEGSHQYELLKHAEATLGSGNLRQAVMLPEGEDLNEWIAVNTVDFFNQINMLYGTITEFCTEASCPVMSAGPRYEYHWADGTNIKKPIKCSAPKYIDYLMTWVQDQLDDETLFPSKIGVPFPKNFMSVAKTILKRLFRVYAHIYHQHFDSVMQLQEEAHLNTSFKHFIFFVQEFNLIDRRELAPLQELIEKLGSKDR
